Results from the supplement of paper PMC9112550, “Optimization of the antimicrobial peptide Bac7 by deep mutational scanning” (BMC Biology, 2022).

Test system: Escherichia coli TOP10
Assay: shrunken log2 fold change of peptide-encoding DNA abundance (4.5 h post-induction vs induction); higher = less antimicrobial activity (less host growth inhibition)
Details: time post-induction: 4.5 h; library: site-saturation at positions 5, 18, 19, 20
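Further: peptides expressed intracellularly from a pBAD plasmid library in pooled LB shake-flask culture, induced with 0.3% L-arabinose, DNA abundance read by NGS, three biological replicates, DESeq2 with apeglm shrinkage.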

| Sequence | shrunken log2 fold change |
| --- | --- |
| RRIRIRPPRLPRPRPRPDIAPRP | -0.659 |
| RRIRPRPPRLPRPRPRPNLQPRP | 0.0751 |
| RRIRYRPPRLPRPRPRPEFFPRP | -0.0803 |
| RRIRIRPPRLPRPRPRPEGQPRP | -0.0492 |
| RRIRCRPPRLPRPRPRPRCMPRP | -0.143 |
| RRIRQRPPRLPRPRPRPEPPPRP | 0.488 |
| RRIRSRPPRLPRPRPRPGECPRP | -0.181 |
| RRIRKRPPRLPRPRPRPFKWPRP | 0.33 |
| RRIRTRPPRLPRPRPRPGRNPRP | -0.0275 |
| RRIRHRPPRLPRPRPRPYSSPRP | -0.0579 |
| RRIRYRPPRLPRPRPRPKPPPRP | 0.524 |
| RRIRVRPPRLPRPRPRPLYVPRP | -0.705 |
| RRIRCRPPRLPRPRPRPEMIPRP | 0.12 |
| RRIRGRPPRLPRPRPRPNNLPRP | -0.349 |
| RRIRNRPPRLPRPRPRPDPWPRP | 0.106 |
| RRIRYRPPRLPRPRPRPFMKPRP | -0.272 |
| RRIRFRPPRLPRPRPRPCTNPRP | -0.598 |
| RRIRYRPPRLPRPRPRPSQTPRP | -0.0989 |
| RRIRIRPPRLPRPRPRPELCPRP | 0.0211 |
| RRIRTRPPRLPRPRPRPETMPRP | 0.338 |
| RRIRPRPPRLPRPRPRPPGQPRP | 0.141 |
| RRIRWRPPRLPRPRPRPPNYPRP | -0.0821 |
| RRIRARPPRLPRPRPRPNPGPRP | 0.462 |
| RRIRKRPPRLPRPRPRPPQQPRP | 0.346 |
| RRIRSRPPRLPRPRPRPEYCPRP | 0.184 |

| Sequence | shrunken log2 fold change |
| --- | --- |
| RRIRFRPPRLPRPRPRPDCQPRP | 0.0422 |
| RRIRWRPPRLPRPRPRPMTYPRP | -0.289 |
| RRIRSRPPRLPRPRPRPSQDPRP | -0.296 |
| RRIRERPPRLPRPRPRPSPQPRP | -0.0688 |
| RRIRTRPPRLPRPRPRPCYNPRP | -0.645 |
| RRIRKRPPRLPRPRPRPVMNPRP | -0.0155 |
| RRIRVRPPRLPRPRPRPVVLPRP | 0.0921 |
| RRIRDRPPRLPRPRPRPSLKPRP | 0.155 |
| RRIRVRPPRLPRPRPRPKQPPRP | 0.11 |
| RRIRTRPPRLPRPRPRPYVFPRP | -0.394 |
| RRIRPRPPRLPRPRPRPHSPPRP | -0.0589 |
| RRIRSRPPRLPRPRPRPTHLPRP | 0.135 |
| RRIRGRPPRLPRPRPRPMPNPRP | -0.0294 |
| RRIRNRPPRLPRPRPRPRYRPRP | -0.0876 |
| RRIRCRPPRLPRPRPRPEVHPRP | -0.328 |
| RRIRMRPPRLPRPRPRPHMFPRP | -0.222 |
| RRIRKRPPRLPRPRPRPGSRPRP | -0.171 |
| RRIRQRPPRLPRPRPRPFQWPRP | 0.0154 |
| RRIRPRPPRLPRPRPRPEHLPRP | -0.109 |
| RRIRIRPPRLPRPRPRPNYFPRP | -0.749 |
| RRIRGRPPRLPRPRPRPAENPRP | 0.996 |
| RRIRFRPPRLPRPRPRPPPTPRP | 1.39 |
| RRIRCRPPRLPRPRPRPCPNPRP | -0.14 |
| RRIRYRPPRLPRPRPRPHDYPRP | -0.119 |
| RRIRSRPPRLPRPRPRPQFYPRP | -0.769 |

| Sequence | shrunken log2 fold change |
| --- | --- |
| RRIRVRPPRLPRPRPRPVQGPRP | 0.0692 |
| RRIRYRPPRLPRPRPRPFLSPRP | -0.0547 |
| RRIRKRPPRLPRPRPRPYFWPRP | -0.0468 |
| RRIRRRPPRLPRPRPRPSCFPRP | -0.0896 |
| RRIRERPPRLPRPRPRPMSSPRP | -0.000155 |
| RRIRKRPPRLPRPRPRPPFCPRP | -0.0397 |
| RRIRFRPPRLPRPRPRPHLHPRP | -0.511 |
| RRIRERPPRLPRPRPRPTQIPRP | 0.0737 |
| RRIRWRPPRLPRPRPRPSIMPRP | -0.0893 |
| RRIRSRPPRLPRPRPRPYPAPRP | -0.559 |
| RRIRQRPPRLPRPRPRPPYTPRP | -0.552 |
| RRIRTRPPRLPRPRPRPPCRPRP | 0.121 |
| RRIRARPPRLPRPRPRPTDCPRP | 0.0381 |
| RRIRLRPPRLPRPRPRPKVGPRP | 0.109 |
| RRIRHRPPRLPRPRPRPFHIPRP | -0.0345 |
| RRIRARPPRLPRPRPRPGWVPRP | 0.29 |
| RRIRCRPPRLPRPRPRPYRMPRP | -0.197 |
| RRIRTRPPRLPRPRPRPANEPRP | -0.226 |
| RRIRNRPPRLPRPRPRPGTPPRP | 0.608 |
| RRIRARPPRLPRPRPRPDYAPRP | 2.44 |
| RRIRHRPPRLPRPRPRPGFEPRP | 0.373 |
| RRIRQRPPRLPRPRPRPIYLPRP | -0.163 |
| RRIRQRPPRLPRPRPRPRHRPRP | 0.16 |
| RRIRWRPPRLPRPRPRPVENPRP | -0.101 |
| RRIRPRPPRLPRPRPRPTAKPRP | 0.152 |

| Sequence | shrunken log2 fold change |
| --- | --- |
| RRIRKRPPRLPRPRPRPMYCPRP | -0.233 |
| RRIRRRPPRLPRPRPRPWVMPRP | -0.123 |
| RRIRARPPRLPRPRPRPEMNPRP | 0.655 |
| RRIRYRPPRLPRPRPRPECRPRP | -0.142 |
| RRIRDRPPRLPRPRPRPGSEPRP | 0.0708 |
| RRIRMRPPRLPRPRPRPCWYPRP | 0.092 |
| RRIRYRPPRLPRPRPRPQTNPRP | -0.711 |
| RRIRARPPRLPRPRPRPGTPPRP | 0.642 |
| RRIRGRPPRLPRPRPRPQTFPRP | 0.762 |
| RRIRMRPPRLPRPRPRPVEMPRP | -0.0685 |
| RRIRHRPPRLPRPRPRPKMLPRP | -0.353 |
| RRIRQRPPRLPRPRPRPKRVPRP | -0.154 |
| RRIRRRPPRLPRPRPRPQDTPRP | -0.321 |
| RRIRTRPPRLPRPRPRPNRSPRP | -0.069 |
| RRIRTRPPRLPRPRPRPDYCPRP | -0.125 |
| RRIRARPPRLPRPRPRPRIQPRP | 0.505 |
| RRIRERPPRLPRPRPRPMNEPRP | -0.0835 |
| RRIRHRPPRLPRPRPRPSVTPRP | -0.453 |
| RRIRQRPPRLPRPRPRPVQQPRP | 0.142 |
| RRIRTRPPRLPRPRPRPTASPRP | 0.0344 |
| RRIRVRPPRLPRPRPRPFTMPRP | -0.368 |
| RRIRERPPRLPRPRPRPCWAPRP | 0.00771 |
| RRIRCRPPRLPRPRPRPCVYPRP | -0.411 |
| RRIRIRPPRLPRPRPRPRGSPRP | -0.189 |
| RRIRARPPRLPRPRPRPWVHPRP | -0.162 |

| Sequence | shrunken log2 fold change |
| --- | --- |
| RRIRARPPRLPRPRPRPRCFPRP | 0.222 |
| RRIRYRPPRLPRPRPRPFQGPRP | 0.0712 |
| RRIRMRPPRLPRPRPRPYVKPRP | -0.209 |
| RRIRGRPPRLPRPRPRPMPVPRP | 0.447 |
| RRIRNRPPRLPRPRPRPVSQPRP | -0.0152 |
| RRIRCRPPRLPRPRPRPMGAPRP | 0.144 |
| RRIRPRPPRLPRPRPRPQEPPRP | 0.265 |
| RRIRQRPPRLPRPRPRPPMAPRP | 0.0822 |
| RRIRDRPPRLPRPRPRPMPPPRP | 0.361 |
| RRIRNRPPRLPRPRPRPKWPPRP | 0.208 |
| RRIRDRPPRLPRPRPRPHHYPRP | -0.0954 |
| RRIRKRPPRLPRPRPRPMTHPRP | -0.00695 |
| RRIRERPPRLPRPRPRPAGTPRP | 0.346 |
| RRIRLRPPRLPRPRPRPVSTPRP | 0.255 |
| RRIRIRPPRLPRPRPRPCSVPRP | -0.466 |
| RRIRNRPPRLPRPRPRPWGQPRP | 0.0191 |
| RRIRKRPPRLPRPRPRPDKQPRP | 0.0638 |
| RRIRQRPPRLPRPRPRPSHWPRP | -0.153 |
| RRIRWRPPRLPRPRPRPTPIPRP | 0.419 |
| RRIRDRPPRLPRPRPRPSVMPRP | 0.198 |
| RRIRRRPPRLPRPRPRPSTHPRP | 0.0934 |
| RRIRIRPPRLPRPRPRPRAQPRP | 0.27 |
| RRIRKRPPRLPRPRPRPFRFPRP | 0.125 |
| RRIRMRPPRLPRPRPRPQFHPRP | -0.237 |
| RRIRHRPPRLPRPRPRPEMAPRP | 0.253 |

| Sequence | shrunken log2 fold change |
| --- | --- |
| RRIRKRPPRLPRPRPRPPEGPRP | 1.08 |
| RRIRHRPPRLPRPRPRPVWNPRP | -0.402 |
| RRIRYRPPRLPRPRPRPRQAPRP | 0.0877 |
| RRIRFRPPRLPRPRPRPGEKPRP | 0.084 |
| RRIRTRPPRLPRPRPRPIKPPRP | -0.0369 |
| RRIRVRPPRLPRPRPRPINAPRP | -0.174 |
| RRIRWRPPRLPRPRPRPKYQPRP | -0.231 |
| RRIRKRPPRLPRPRPRPVGWPRP | 0.897 |
| RRIRKRPPRLPRPRPRPLWFPRP | 0.107 |
| RRIRVRPPRLPRPRPRPGYYPRP | -0.248 |
| RRIRFRPPRLPRPRPRPRYVPRP | -0.105 |
| RRIRLRPPRLPRPRPRPWQGPRP | -0.00192 |
| RRIRRRPPRLPRPRPRPHLYPRP | 0.176 |
| RRIRWRPPRLPRPRPRPCKHPRP | -0.245 |
| RRIRKRPPRLPRPRPRPTEPPRP | -0.0305 |
| RRIRMRPPRLPRPRPRPTYTPRP | -0.173 |
| RRIRPRPPRLPRPRPRPDHRPRP | -0.0495 |
| RRIRFRPPRLPRPRPRPWVDPRP | -0.608 |
| RRIRPRPPRLPRPRPRPRQYPRP | -0.257 |
| RRIRLRPPRLPRPRPRPFTMPRP | -0.764 |
| RRIRVRPPRLPRPRPRPQICPRP | -0.185 |
| RRIRTRPPRLPRPRPRPMLDPRP | -0.0137 |
| RRIRDRPPRLPRPRPRPQKKPRP | -0.0848 |
| RRIRVRPPRLPRPRPRPFSKPRP | -0.138 |
| RRIRWRPPRLPRPRPRPIWLPRP | 0.211 |
